Residue numbers refer to the chain shown, from its start. Names and notes keep the numbering of the source.
B1: VH SEQ ID NO 546 / VL SEQ ID NO 366 (antibody, IgG4, V domains shown)
VH: QVQLQESGPGLVEPSQTLSLTCTVSGYSITSDSAWSWIRQPPGKKLEWIGYIQYSGSTNYNPSLKSRVTISRDTSKNQFSLKLSSVTAADTAVYYCARSVNYYGNSFAVGYWGQGTSVTVSS
VL: EIVLTQSPATLSLSPGERATLSCRASQGLSDYLAWYQQKPGEAPRLLIKYASQPATGIPARFSGSGSGTDFTLTISSLEPEDFAVYYCQNGHSFPLTFGQGTKLEIK
notes: humanized 11F2; IgG4 S228P/kappa
B2: VH SEQ ID NO 546 / VL SEQ ID NO 374 (antibody, IgG4, V domains shown)
VH: B1 VH
VL: B1 VL with E42Q, A51T
notes: as for B1
B3: VH SEQ ID NO 546 / VL SEQ ID NO 382 (antibody, IgG4, V domains shown)
VH: B1 VH
VL: B1 VL with A34H
notes: as for B1
B4: VH SEQ ID NO 546 / VL SEQ ID NO 390 (antibody, IgG4, V domains shown)
VH: B1 VH
VL: B1 VL with L29V
notes: as for B1
B5: VH SEQ ID NO 546 / VL SEQ ID NO 398 (antibody, IgG4, V domains shown)
VH: B1 VH
VL: B1 VL with L29V, A51T
notes: as for B1
B6: VH SEQ ID NO 546 / VL SEQ ID NO 406 (antibody, IgG4, V domains shown)
VH: B1 VH
VL: B1 VL with L29V, E42Q, Q100A
notes: as for B1
B7: VH SEQ ID NO 546 / VL SEQ ID NO 414 (antibody, IgG4, V domains shown)
VH: B1 VH
VL: B1 VL with L29V, E42Q
notes: as for B1
B8: VH SEQ ID NO 546 / VL SEQ ID NO 422 (antibody, IgG4, V domains shown)
VH: B1 VH
VL: B1 VL with L29V, E42Q, N90Q
notes: as for B1
B9: VH SEQ ID NO 546 / VL SEQ ID NO 430 (antibody, IgG4, V domains shown)
VH: B1 VH
VL: B1 VL with L29V, E42Q, A84G
notes: as for B1
B10: VH SEQ ID NO 546 / VL SEQ ID NO 438 (antibody, IgG4, V domains shown)
VH: B1 VH
VL: B1 VL with L29V, E42Q, F83V
notes: as for B1
B11: VH SEQ ID NO 546 / VL SEQ ID NO 446 (antibody, IgG4, V domains shown)
VH: B1 VH
VL: B1 VL with L29V, E42Q, A51T
notes: as for B1
B12: VH SEQ ID NO 546 / VL SEQ ID NO 454 (antibody, IgG4, V domains shown)
VH: B1 VH
VL: B1 VL with L29V, A34H
notes: as for B1
B13: VH SEQ ID NO 546 / VL SEQ ID NO 462 (antibody, IgG4, V domains shown)
VH: B1 VH
VL: B1 VL with L29V, A34H, E42Q, Q100A
notes: as for B1
B14: VH SEQ ID NO 546 / VL SEQ ID NO 470 (antibody, IgG4, V domains shown)
VH: B1 VH
VL: B1 VL with L29V, A34H, E42Q
notes: as for B1
B15: VH SEQ ID NO 546 / VL SEQ ID NO 478 (antibody, IgG4, V domains shown)
VH: B1 VH
VL: B1 VL with L29V, A34H, E42Q, N90Q
notes: as for B1
B16: VH SEQ ID NO 546 / VL SEQ ID NO 486 (antibody, IgG4, V domains shown)
VH: B1 VH
VL: B1 VL with L29V, A34H, E42Q, A84G
notes: as for B1
B17: VH SEQ ID NO 546 / VL SEQ ID NO 494 (antibody, IgG4, V domains shown)
VH: B1 VH
VL: B1 VL with L29V, A34H, E42Q, F83V
notes: as for B1
B18: VH SEQ ID NO 546 / VL SEQ ID NO 502 (antibody, IgG4, V domains shown)
VH: B1 VH
VL: B1 VL with L29V, A34H, E42Q, A51T
notes: as for B1
B19: VH SEQ ID NO 554 / VL SEQ ID NO 318 (antibody, IgG4, V domains shown)
VH: QVQLQESGPGLVKPSDTLSLTCAVSGYSISSDSAWSWIRQFPGKGLEWIGYIQYSGSTNYNPSLKSRVTMSVDTSKNQFSLKLSSVTALDTAVYYCARSVNYYGNSFAVGPWGQGTLVTVSS
VL: B1 VL with L29I, A34H, A51T
notes: as for B1
B20: VH SEQ ID NO 554 / VL SEQ ID NO 326 (antibody, IgG4, V domains shown)
VH: B19 VH
VL: B1 VL with L29I, A34H, A51T, A84G, Q100A, I106L
notes: as for B1
B21: VH SEQ ID NO 554 / VL SEQ ID NO 334 (antibody, IgG4, V domains shown)
VH: B19 VH
VL: B1 VL with L29I, A34H, E42Q
notes: as for B1
B22: VH SEQ ID NO 554 / VL SEQ ID NO 342 (antibody, IgG4, V domains shown)
VH: B19 VH
VL: B1 VL with L29I, A34H, E42Q, A51T, T69R, Q100A, I106L
notes: as for B1
B23: VH SEQ ID NO 554 / VL SEQ ID NO 350 (antibody, IgG4, V domains shown)
VH: B19 VH
VL: B1 VL with L29I, A34H, E42Q, A51T, Q100A, I106L
notes: as for B1
B24: VH SEQ ID NO 554 / VL SEQ ID NO 358 (antibody, IgG4, V domains shown)
VH: B19 VH
VL: B1 VL with L29I, A34H, E42Q, A51T
notes: as for B1
B25: VH SEQ ID NO 554 / VL SEQ ID NO 382 (antibody, IgG4, V domains shown)
VH: B19 VH
VL: B1 VL with A34H
notes: as for B1
B26: VH SEQ ID NO 554 / VL SEQ ID NO 454 (antibody, IgG4, V domains shown)
VH: B19 VH
VL: B1 VL with L29V, A34H
notes: as for B1
B27: VH SEQ ID NO 554 / VL SEQ ID NO 462 (antibody, IgG4, V domains shown)
VH: B19 VH
VL: B1 VL with L29V, A34H, E42Q, Q100A
notes: as for B1
B28: VH SEQ ID NO 554 / VL SEQ ID NO 470 (antibody, IgG4, V domains shown)
VH: B19 VH
VL: B1 VL with L29V, A34H, E42Q
notes: as for B1
B29: VH SEQ ID NO 554 / VL SEQ ID NO 478 (antibody, IgG4, V domains shown)
VH: B19 VH
VL: B1 VL with L29V, A34H, E42Q, N90Q
notes: as for B1
B30: VH SEQ ID NO 554 / VL SEQ ID NO 486 (antibody, IgG4, V domains shown)
VH: B19 VH
VL: B1 VL with L29V, A34H, E42Q, A84G
notes: as for B1
B31: VH SEQ ID NO 554 / VL SEQ ID NO 494 (antibody, IgG4, V domains shown)
VH: B19 VH
VL: B1 VL with L29V, A34H, E42Q, F83V
notes: as for B1
B32: VH SEQ ID NO 554 / VL SEQ ID NO 502 (antibody, IgG4, V domains shown)
VH: B19 VH
VL: B1 VL with L29V, A34H, E42Q, A51T
notes: as for B1
B33: VH SEQ ID NO 562 / VL SEQ ID NO 310 (antibody, IgG4, V domains shown)
VH: B19 VH with F41P, V72R
VL: B1 VL with L29I, E42Q
notes: as for B1
B34: VH SEQ ID NO 562 / VL SEQ ID NO 318 (antibody, IgG4, V domains shown)
VH: B19 VH with F41P, V72R
VL: B1 VL with L29I, A34H, A51T
notes: as for B1
B35: VH SEQ ID NO 562 / VL SEQ ID NO 326 (antibody, IgG4, V domains shown)
VH: B19 VH with F41P, V72R
VL: B1 VL with L29I, A34H, A51T, A84G, Q100A, I106L
notes: as for B1
B36: VH SEQ ID NO 562 / VL SEQ ID NO 334 (antibody, IgG4, V domains shown)
VH: B19 VH with F41P, V72R
VL: B1 VL with L29I, A34H, E42Q
notes: as for B1
B37: VH SEQ ID NO 562 / VL SEQ ID NO 342 (antibody, IgG4, V domains shown)
VH: B19 VH with F41P, V72R
VL: B1 VL with L29I, A34H, E42Q, A51T, T69R, Q100A, I106L
notes: as for B1
B38: VH SEQ ID NO 562 / VL SEQ ID NO 350 (antibody, IgG4, V domains shown)
VH: B19 VH with F41P, V72R
VL: B1 VL with L29I, A34H, E42Q, A51T, Q100A, I106L
notes: as for B1
B39: VH SEQ ID NO 562 / VL SEQ ID NO 358 (antibody, IgG4, V domains shown)
VH: B19 VH with F41P, V72R
VL: B1 VL with L29I, A34H, E42Q, A51T
notes: as for B1
B40: VH SEQ ID NO 562 / VL SEQ ID NO 366 (antibody, IgG4, V domains shown)
VH: B19 VH with F41P, V72R
VL: B1 VL
notes: as for B1
B41: VH SEQ ID NO 562 / VL SEQ ID NO 382 (antibody, IgG4, V domains shown)
VH: B19 VH with F41P, V72R
VL: B1 VL with A34H
notes: as for B1
B42: VH SEQ ID NO 562 / VL SEQ ID NO 390 (antibody, IgG4, V domains shown)
VH: B19 VH with F41P, V72R
VL: B1 VL with L29V
notes: as for B1
B43: VH SEQ ID NO 562 / VL SEQ ID NO 406 (antibody, IgG4, V domains shown)
VH: B19 VH with F41P, V72R
VL: B1 VL with L29V, E42Q, Q100A
notes: as for B1
B44: VH SEQ ID NO 562 / VL SEQ ID NO 414 (antibody, IgG4, V domains shown)
VH: B19 VH with F41P, V72R
VL: B1 VL with L29V, E42Q
notes: as for B1

Each binder was assayed against T1, recombinant human activated Factor VII (FVIIa) (human, UniProt P08709 61-212; P08709 213-466, ten glutamate residues of the Gla domain may be gamma-carboxylated) (assay: BLI (Fortebio)).
T1 construct: chains tethered by a disulfide bond; also called Factor VIIa; rFVIIa
T1 sequence 1: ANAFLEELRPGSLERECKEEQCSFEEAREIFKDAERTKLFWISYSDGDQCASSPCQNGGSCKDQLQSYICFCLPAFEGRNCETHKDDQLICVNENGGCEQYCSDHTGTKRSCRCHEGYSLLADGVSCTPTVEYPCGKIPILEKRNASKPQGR
T1 sequence 2: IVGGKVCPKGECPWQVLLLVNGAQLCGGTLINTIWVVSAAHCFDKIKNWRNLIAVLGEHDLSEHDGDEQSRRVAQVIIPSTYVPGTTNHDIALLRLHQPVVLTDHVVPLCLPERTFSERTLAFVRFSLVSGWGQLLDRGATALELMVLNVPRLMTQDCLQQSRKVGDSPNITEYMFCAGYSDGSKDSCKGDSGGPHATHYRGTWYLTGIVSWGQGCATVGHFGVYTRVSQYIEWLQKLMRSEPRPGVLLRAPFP

Binder	Kd
B1	5.7 nM
B2	6.8 nM
B3	1.3 nM
B4	7 nM
B5	11 nM
B6	6.7 nM
B7	7.1 nM
B8	24 nM
B9	8.1 nM
B10	8 nM
B11	10 nM
B12	1.1 nM
B13	1.1 nM
B14	1.2 nM
B15	2 nM
B16	1.1 nM
B17	1.2 nM
B18	1.1 nM
B19	15 nM
B20	14 nM
B21	18 nM
B22	23 nM

Binder	Kd
B23	19 nM
B24	16 nM
B25	21 nM
B26	19 nM
B27	20 nM
B28	19 nM
B29	21 nM
B30	19 nM
B31	22 nM
B32	18 nM
B33	6.4 nM
B34	0.92 nM
B35	0.78 nM
B36	1.2 nM
B37	1.3 nM
B38	0.93 nM
B39	0.95 nM
B40	8.3 nM
B41	1.2 nM
B42	10 nM
B43	7.7 nM
B44	8.8 nM
